Assay results: paper PMC6910952 (Nature Communications, 2019)
No end group written: not given here.

T1: His6-yNpl4^113–580 (Saccharomyces cerevisiae, UniProt P33755 113-580)
T1 construct: codon-optimized synthetic cDNA; also called WT; WT #1; source: E. coli Rosetta (DE3), purified (Ni-NTA, Resource Q); also in lysate, mixed with cells expressing GST-yUfd1 for co-purification; not shown: His6, N-terminal, kept
T1 sequence (looked up): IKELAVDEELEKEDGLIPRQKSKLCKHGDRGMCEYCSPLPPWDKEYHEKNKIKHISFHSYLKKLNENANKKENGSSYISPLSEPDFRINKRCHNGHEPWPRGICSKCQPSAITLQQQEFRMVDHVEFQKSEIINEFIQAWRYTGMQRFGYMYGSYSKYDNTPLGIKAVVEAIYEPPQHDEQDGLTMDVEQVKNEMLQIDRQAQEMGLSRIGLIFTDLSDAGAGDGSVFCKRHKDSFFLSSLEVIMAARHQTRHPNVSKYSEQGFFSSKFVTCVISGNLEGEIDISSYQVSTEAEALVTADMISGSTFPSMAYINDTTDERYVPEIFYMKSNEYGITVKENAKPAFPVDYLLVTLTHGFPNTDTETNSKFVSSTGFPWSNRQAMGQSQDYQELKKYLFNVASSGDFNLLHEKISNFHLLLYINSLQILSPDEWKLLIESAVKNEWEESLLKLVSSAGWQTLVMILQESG


Molecular target: T1, His6-yNpl4^113–580
Experiment: fluorescence polarisation; fluorescence anisotropy; 1 nM FlAsH-labeled His6-SUMO-yUfd1 peptide, His6-yNpl4^113–580 in two-fold dilution series; 25 °C; 50 mM Tris-HCl pH 8.0, 100 mM NaCl, 5 mM β-mercaptoethanol, 0.1 g/L BSA
Details: both partners purified

Binder | Kd
{His6-SUMO}-EPAKLDLPEGQAFFGFPMGWCCPGCC (peptide, UniProt P53044 288-305, looked up, cysteine pairing not given here; also: FlAsH label bound to CCPGCC motif, Ufd1 of Saccharomyces cerevisiae (yUfd1), residues 288-305 (NBM); also called yUfd1 L299A; source: E. coli Rosetta (DE3) (pCold-SUMO), purified (Ni-NTA, Resource Q), labeled with FlAsH-EDT2; not shown: His6, N-terminal, kept; SUMO, N-terminal, kept) [FlAsH-labeled His6-SUMO-yUfd1^288–305-GWCCPGCC L299A] | 12700 nM
{His6-SUMO}-EPAKLDLPEGQLFFGAPMGWCCPGCC (peptide, UniProt P53044 288-305, looked up, cysteine pairing not given here; also: FlAsH label bound to CCPGCC motif, Ufd1 of Saccharomyces cerevisiae (yUfd1), residues 288-305 (NBM); also called yUfd1 F303A; source: E. coli Rosetta (DE3) (pCold-SUMO), purified (Ni-NTA, Resource Q), labeled with FlAsH-EDT2; not shown: His6, N-terminal, kept; SUMO, N-terminal, kept) [FlAsH-labeled His6-SUMO-yUfd1^288–305-GWCCPGCC F303A] | 1770 nM
{His6-SUMO}-EPAKLDLPELQLFFGFPMGWCCPGCC (peptide, UniProt P53044 288-305, looked up, cysteine pairing not given here; also: FlAsH label bound to CCPGCC motif, Ufd1 of Saccharomyces cerevisiae (yUfd1), residues 288-305 (NBM); also called yUfd1 G297L; source: E. coli Rosetta (DE3) (pCold-SUMO), purified (Ni-NTA, Resource Q), labeled with FlAsH-EDT2; not shown: His6, N-terminal, kept; SUMO, N-terminal, kept) [FlAsH-labeled His6-SUMO-yUfd1^288–305-GWCCPGCC G297L] | 619 nM
{His6-SUMO}-EPAKLDLPEYQLFFGFPMGWCCPGCC (peptide, UniProt P53044 288-305, looked up, cysteine pairing not given here; also: FlAsH label bound to CCPGCC motif, Ufd1 of Saccharomyces cerevisiae (yUfd1), residues 288-305 (NBM); also called yUfd1 G297Y; source: E. coli Rosetta (DE3) (pCold-SUMO), purified (Ni-NTA, Resource Q), labeled with FlAsH-EDT2; not shown: His6, N-terminal, kept; SUMO, N-terminal, kept) [FlAsH-labeled His6-SUMO-yUfd1^288–305-GWCCPGCC G297Y] | 2140 nM
{His6-SUMO}-EPAKLDLPERQLFFGFPMGWCCPGCC (peptide, UniProt P53044 288-305, looked up, cysteine pairing not given here; also: FlAsH label bound to CCPGCC motif, Ufd1 of Saccharomyces cerevisiae (yUfd1), residues 288-305 (NBM); also called yUfd1 G297R; source: E. coli Rosetta (DE3) (pCold-SUMO), purified (Ni-NTA, Resource Q), labeled with FlAsH-EDT2; not shown: His6, N-terminal, kept; SUMO, N-terminal, kept) [FlAsH-labeled His6-SUMO-yUfd1^288–305-GWCCPGCC G297R] | 20900 nM

These reach a lower Kd. Values come first.

Kd | Binder
437 nM | {His6-SUMO}-EPAKLDLPAGQLFFGFPMGWCCPGCC (peptide, UniProt P53044 288-305, looked up, cysteine pairing not given here; also: FlAsH label bound to CCPGCC motif, Ufd1 of Saccharomyces cerevisiae (yUfd1), residues 288-305 (NBM); also called yUfd1 E296A; source: E. coli Rosetta (DE3) (pCold-SUMO), purified (Ni-NTA, Resource Q), labeled with FlAsH-EDT2; not shown: His6, N-terminal, kept; SUMO, N-terminal, kept) [FlAsH-labeled His6-SUMO-yUfd1^288–305-GWCCPGCC E296A]
261 nM | {His6-SUMO}-EPAKLDLPEGQLFFGFPAGWCCPGCC (peptide, UniProt P53044 288-305, looked up, cysteine pairing not given here; also: FlAsH label bound to CCPGCC motif, Ufd1 of Saccharomyces cerevisiae (yUfd1), residues 288-305 (NBM); also called yUfd1 M305A; source: E. coli Rosetta (DE3) (pCold-SUMO), purified (Ni-NTA, Resource Q), labeled with FlAsH-EDT2; not shown: His6, N-terminal, kept; SUMO, N-terminal, kept) [FlAsH-labeled His6-SUMO-yUfd1^288–305-GWCCPGCC M305A]
527 nM | {His6-SUMO}-EPAKLDAPEGQLFFGFPMGWCCPGCC (peptide, UniProt P53044 288-305, looked up, cysteine pairing not given here; also: FlAsH label bound to CCPGCC motif, Ufd1 of Saccharomyces cerevisiae (yUfd1), residues 288-305 (NBM); also called yUfd1 L294A; source: E. coli Rosetta (DE3) (pCold-SUMO), purified (Ni-NTA, Resource Q), labeled with FlAsH-EDT2; not shown: His6, N-terminal, kept; SUMO, N-terminal, kept) [FlAsH-labeled His6-SUMO-yUfd1^288–305-GWCCPGCC L294A]
